Data from the supplement of paper PMC5998384.

How the values were obtained:
HeLa Kyoto [1] = experiment: thermal stability score vs G1/S (z-score of summed log2 fold changes over temperatures); higher = more thermally stable than in G1/S
HeLa Kyoto [2] = experiment: melting temperature (median over replicates), in situ; higher = more thermally stable
HeLa Kyoto [3] = experiment: solubility change mitosis vs G1/S (difference of NP-40 vs SDS log2 ratios) (log2 ratio difference); higher = more soluble in mitosis
HeLa Kyoto [4] = experiment: solubility in G1/S (NP-40 vs SDS abundance) (log2 ratio); higher = more soluble; details: cell cycle stage: G1/S
[5] = cell cycle stage: early G1 (4.5 h after nocodazole release)
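For melting temperature (median over replicates), in situ in this document: HeLa Kyoto cells synchronized by double thymidine or nocodazole block, proteins quantified by TMT10plex mass spectrometry, three independent biological replicates.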
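For solubility change mitosis vs G1/S (difference of NP-40 vs SDS log2 ratios) in this document: synchronized HeLa Kyoto cells (double thymidine block for G1/S, nocodazole release for mitosis), protein amounts in NP-40 versus SDS lysates quantified by mass spectrometry, three biological replicates.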
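For solubility in G1/S (NP-40 vs SDS abundance) in this document: HeLa Kyoto cells arrested at G1/S by double thymidine block, proteins quantified by TMT10plex mass spectrometry in mild NP-40 versus SDS extracts, three biological replicates.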
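For thermal stability score vs G1/S (z-score of summed log2 fold changes over temperatures) in this document: synchronized HeLa Kyoto cells, proteins quantified by TMT10plex mass spectrometry, three biological replicates, mitosis taken 0.5 h after nocodazole release, G1/S directly after double thymidine block.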

Sequence | thermal stability score (HeLa Kyoto [1]; [5]) | thermal stability score (HeLa Kyoto [1]; cell cycle stage: mitosis) | melting temperature (HeLa Kyoto [2]; cell cycle stage: G1/S) [°C] | melting temperature (HeLa Kyoto [2]; cell cycle stage: mitosis) [°C] | solubility change mitosis (log2) (HeLa Kyoto [3]) | solubility in G1/S (log2) (HeLa Kyoto [4])
MEPRAVAEAVETGEEDVIMEALRSYNQEHSQSFTFDDAQQEDRKRLAELLVSVLEQGLPPSHRVIWLQSVRILSRDRNCLDPFTSRQSLQALACYADISVSEGSVPESADMDVVLESLKCLCNLVLSSPVAQMLAAEARLVVKLTERVGLYRERSFPHDVQFFDLRLLFLLTALRTDVRQQLFQELKGVRLLTDTLELTLGVTPEGNPPPTLLPSQETERAMEILKVLFNITLDSIKGEVDEEDAALYRHLGTLLRHCVMIATAGDRTEEFHGHAVNLLGNLPLKCLDVLLTLEPHGDSTEFMGVNMDVIRALLIFLEKRLHKTHRLKESVAPVLSVLTECARMHRPARKFLKAQVLPPLRDVRTRPEVGEMLRNKLVRLMTHLDTDVKRVAAEFLFVLCSESVPRFIKYTGYGNAAGLLAARGLMAGGRPEGQYSEDEDTDTDEYKEAKASINPVTGRVEEKPPNPMEGMTEEQKEHEAMKLVTMFDKLSRNRVIQPMGMSPRGHLTSLQDAMCETMEQQLSSDPDSDPD [RIC8A] | 1.87 | -0.505 | 51.6 | 49.6 | 0.342 | -0.322
MEQEPQNGEPAEIKIIREAYKKAFLFVNKGLNTDELGQKEEAKNYYKQGIGHLLRGISISSKESEHTGPGWESARQMQQKMKETLQNVRTRLEILEKGLATSLQNDLQEVPKLYPEFPPKDMCEKLPEPQSFSSAPQHAEVNGNTSTPSAGAVAAPASLSLPSQSCPAEAPPAYTPQAAEGHYTVSYGTDSGEFSSVGEEFYRNHSQPPPLETLGLDADELILIPNGVQIFFVNPAGEVSAPSYPGYLRIVRFLDNSLDTVLNRPPGFLQVCDWLYPLVPDRSPVLKCTAGAYMFPDTMLQAAGCFVGVVLSSELPEDDRELFEDLLRQMSDLRLQANWNRAEEENEFQIPGRTRPSSDQLKEASGTDVKQLDQGNKDVRHKGKRGKRAKDTSSEEVNLSHIVPCEPVPEEKPKELPEWSEKVAHNILSGASWVSWGLVKGAEITGKAIQKGASKLRERIQPEEKPVEVSPAVTKGLYIAKQATGGAAKVSQFLVDGVCTVANCVGKELAPHVKKHGSKLVPESLKKDKDGKSPLDGAMVVAASSVQGFSTVWQGLECAAKCIVNNVSAETVQTVRYKYGYNAGEATHHAVDSAVNVGVTAYNINNIGIKAMVKKTATQTGHTLLEDYQIVDNSQRENQEGAANVNVRGEKDEQTKEVKEAKKKDK [SPG20] | 1.64 | 1.92 | 49.8 | 50.4 | -0.0384 | 0.205
MEQLSDEEIDHGAEEDSDKEDQDLDKMFGAWLGELDKLTQSLDSDKPMEPVKRSPLRQETNMANFSYRFSIYNLNEALNQGETVDLDALMADLCSIEQELSSIGSGNSKRQITETKATQKLPVSRHTLKHGTLKGLSSSSNRIAKPSHASYSLDDVTAQLEQASLSMDEAAQQSVLEDTKPLVTNQHRRTASAGTVSDAEVHSISNSSHSSITSAASSMDSLDIDKVTRPQELDLTHQGQPITEEEQAAKLKAEKIRVALEKIKEAQVKKLVIRVHMSDDSSKTMMVDERQTVRQVLDNLMDKSHCGYSLDWSLVETVSELQMERIFEDHENLVENLLNWTRDSQNKLIFMERIEKYALFKNPQNYLLGKKETAEMADRNKEVLLEECFCGSSVTVPEIEGVLWLKDDGKKSWKKRYFLLRASGIYYVPKGKAKVSRDLVCFLQLDHVNVYYGQDYRNKYKAPTDYCLVLKHPQIQKKSQYIKYLCCDDVRTLHQWVNGIRIAKYGKQLYMNYQEALKRTESAYDWTSLSSSSIKSGSSSSSIPESQSNHSNQSDSGVSDTQPAGHVRSQSIVSSVFSEAWKRGTQLEESSKARMESMNRPYTSLVPPLSPQPKIVTPYTASQPSPPLPPPPPPPPPPPPPPPPPPPPLPSQSAPSAGSAAPMFVKYSTITRLQNASQHSGALFKPPTPPVMQSQSVKPQILVPPNGVVPPPPPPPPPPTPGSAMAQLKPAPCAPSLPQFSAPPPPLKIHQVQHITQVAPPTPPPPPPIPAPLPPQAPPKPLVTIPAPTSTKTVAPVVTQAAPPTPTPPVPPAKKQPAFPASYIPPSPPTPPVPVPPPTLPKQQSFCAKPPPSPLSPVPSVVKQIASQFPPPPTPPAMESQPLKPVPANVAPQSPPAVKAKPKWQPSSIPVPSPDFPPPPPESSLVFPPPPPSPVPAPPPPPPPTASPTPDKSGSPGKKTSKTSSPGGKKPPPTPQRNSSIKSSSGAEHPEPKRPSVDSLVSKFTPPAESGSPSKETLPPPAAPPKPGKLNLSGVNLPGVLQQGCVSAKAPVLSGRGKDSVVEFPSPPSDSDFPPPPPETELPLPPIEIPAVFSGNTSPKVAVVNPQPQQWSKMSVKKAPPPTRPKRNDSTRLTQAEISEQPTMATVVPQVPTSPKSSLSVQPGFLADLNRTLQRKSITRHGSLSSRMSRAEPTATMDDMALPPPPPELLSDQQKAGYGGSHISGYATLRRGPPPAPPKRDQNTKLSRDW [RAPH1] | -1.35 | -0.404 | 52 | 52.3 | -0.187 | 0.0855
MEQPGQDPTSDDVMDSFLEKFQSQPYRGGFHEDQWEKEFEKVPLFMSRAPSEIDPRENPDLACLQSIIFDEERSPEEQAKTYKDEGNDYFKEKDYKKAVISYTEGLKKKCADPDLNAVLYTNRAAAQYYLGNFRSALNDVTAARKLKPCHLKAIIRGALCHLELKHFAEAVNWCDEGLQIDAKEKKLLEMRAKADKLKRIEQRDVRKANLKEKKERNQNEALLQAIKARNIRLSEAACEDEDSASEGLGELFLDGLSTENPHGARLSLDGQGRLSWPVLFLYPEYAQSDFISAFHEDSRFIDHLMVMFGETPSWDLEQKYCPDNLEVYFEDEDRAELYRVPAKSTLLQVLQHQRYFVKALTPAFLVCVGSSPFCKNFLRGRKVYQIR [TTC4] | -0.209 | 0.287 | 49.8 | 49.4 | -0.0862 | 0.484
MEQPKGVDWTVIILTCQYKDSVQVFQRELEVRQKREQIPAGTLLLAVEDPEKRVGSGGATLNALLVAAEHLSARAGFTVVTSDVLHSAWILILHMGRDFPFDDCGRAFTCLPVENPEAPVEALVCNLDCLLDIMTYRLGPGSPPGVWVCSTDMLLSVPANPGISWDSFRGARVIALPGSPAYAQNHGVYLTDPQGLVLDIYYQGTEAEIQRCVRPDGRVPLVSGVVFFSVETAERLLATHVSPPLDACTYLGLDSGARPVQLSLFFDILHCMAENVTREDFLVGRPPELGQGDADVAGYLQSARAQLWRELRDQPLTMAYVSSGSYSYMTSSASEFLLSLTLPGAPGAQIVHSQVEEQQLLAAGSSVVSCLLEGPVQLGPGSVLQHCHLQGPIHIGAGCLVTGLDTAHSKALHGRELRDLVLQGHHTRLHGSPGHAFTLVGRLDSWERQGAGTYLNVPWSEFFKRTGVRAWDLWDPETLPAEYCLPSARLFPVLHPSRELGPQDLLWMLDHQEDGGEALRAWRASWRLSWEQLQPCLDRAATLASRRDLFFRQALHKARHVLEARQDLSLRPLIWAAVREGCPGPLLATLDQVAAGAGDPGVAARALACVADVLGCMAEGRGGLRSGPAANPEWMRPFSYLECGDLAAGVEALAQERDKWLSRPALLVRAARHYEGAGQILIRQAVMSAQHFVSTEQVELPGPGQWVVAECPARVDFSGGWSDTPPLAYELGGAVLGLAVRVDGRRPIGARARRIPEPELWLAVGPRQDEMTVKIVCRCLADLRDYCQPHAPGALLKAAFICAGIVHVHSELQLSEQLLRTFGGGFELHTWSELPHGSGLGTSSILAGTALAALQRAAGRVVGTEALIHAVLHLEQVLTTGGGWQDQVGGLMPGIKVGRSRAQLPLKVEVEEVTVPEGFVQKLNDHLLLVYTGKTRLARNLLQDVLRSWYARLPAVVQNAHSLVRQTEECAEGFRQGSLPLLGQCLTSYWEQKKLMAPGCEPLTVRRMMDVLAPHVHGQSLAGAGGGGFLYLLTKEPQQKEALEAVLAKTEGLGNYSIHLVEVDTQGLSLKLLGTEASTCCPFP [FUK] | -0.477 | -1.02 | 56.6 | 54.8 | -0.182 | -0.0525
MERAAPSRRVPLPLLLLGGLALLAAGVDADVLLEACCADGHRMATHQKDCSLPYATESKECRMVQEQCCHSQLEELHCATGISLANEQDRCATPHGDNASLEATFVKRCCHCCLLGRAAQAQGQSCEYSLMVGYQCGQVFQACCVKSQETGDLDVGGLQETDKIIEVEEEQEDPYLNDRCRGGGPCKQQCRDTGDEVVCSCFVGYQLLSDGVSCEDVNECITGSHSCRLGESCINTVGSFRCQRDSSCGTGYELTEDNSCKDIDECESGIHNCLPDFICQNTLGSFRCRPKLQCKSGFIQDALGNCIDINECLSISAPCPIGHTCINTEGSYTCQKNVPNCGRGYHLNEEGTRCVDVDECAPPAEPCGKGHRCVNSPGSFRCECKTGYYFDGISRMCVDVNECQRYPGRLCGHKCENTLGSYLCSCSVGFRLSVDGRSCEDINECSSSPCSQECANVYGSYQCYCRRGYQLSDVDGVTCEDIDECALPTGGHICSYRCINIPGSFQCSCPSSGYRLAPNGRNCQDIDECVTGIHNCSINETCFNIQGGFRCLAFECPENYRRSAATLQQEKTDTVRCIKSCRPNDVTCVFDPVHTISHTVISLPTFREFTRPEEIIFLRAITPPHPASQANIIFDITEGNLRDSFDIIKRYMDGMTVGVVRQVRPIVGPFHAVLKLEMNYVVGGVVSHRNVVNVHIFVSEYWF [FBLN1] | 1.49 | 0.0681 | 54 | 55.4 | -0.045 | -0.102
MERAESSSTEPAKAIKPIDRKSVHQICSGQVVLSLSTAVKELVENSLDAGATNIDLKLKDYGVDLIEVSDNGCGVEEENFEGLTLKHHTSKIQEFADLTQVETFGFRGEALSSLCALSDVTISTCHASAKVGTRLMFDHNGKIIQKTPYPRPRGTTVSVQQLFSTLPVRHKEFQRNIKKEYAKMVQVLHAYCIISAGIRVSCTNQLGQGKRQPVVCTGGSPSIKENIGSVFGQKQLQSLIPFVQLPPSDSVCEEYGLSCSDALHNLFYISGFISQCTHGVGRSSTDRQFFFINRRPCDPAKVCRLVNEVYHMYNRHQYPFVVLNISVDSECVDINVTPDKRQILLQEEKLLLAVLKTSLIGMFDSDVNKLNVSQQPLLDVEGNLIKMHAADLEKPMVEKQDQSPSLRTGEEKKDVSISRLREAFSLRHTTENKPHSPKTPEPRRSPLGQKRGMLSSSTSGAISDKGVLRPQKEAVSSSHGPSDPTDRAEVEKDSGHGSTSVDSEGFSIPDTGSHCSSEYAASSPGDRGSQEHVDSQEKAPKTDDSFSDVDCHSNQEDTGCKFRVLPQPTNLATPNTKRFKKEEILSSSDICQKLVNTQDMSASQVDVAVKINKKVVPLDFSMSSLAKRIKQLHHEAQQSEGEQNYRKFRAKICPGENQAAEDELRKEISKTMFAEMEIIGQFNLGFIITKLNEDIFIVDQHATDEKYNFEMLQQHTVLQGQRLIAPQTLNLTAVNEAVLIENLEIFRKNGFDFVIDENAPVTERAKLISLPTSKNWTFGPQDVDELIFMLSDSPGVMCRPSRVKQMFASRACRKSVMIGTALNTSEMKKLITHMGEMDHPWNCPHGRPTMRHIANLGVISQN [PMS2] | 1.02 | 1.74 | 48.3 | 49.7 | -0.029 | -0.0345
